Laboratory results reported in patent publication US20130195872A1 (NOVIMMUNE S A, published 2013).

B1: 15E6 antibody (antibody, IgG4, V domains shown)
VH: EVQLVESGGGLVQPGRSLRLSCAASGFTFDDYAMHWVRQAPGKGLEWVSGINWNSGGIGYADSVKGRFTISRDNAKNSLYLQMNSLRAEDTALYYCARDMGGFGEFYWNFGLWGRGTLVTVSS
VL: not shown
notes: also called 15E6 IgG4
B2: 8B11 antibody (antibody, IgG3, V domains shown)
VH: EVQLVESGGGLVHPGGSLRLSCAASGFTFSSFNMDWVRQAPGKGLEWVSSISTTSRIIYSADSVKGRFTISRDNARNSLYLQMNSLRDEDTAVYYCARVSYYGHGFDYWGQGTLVTVSS
VL: DIQMTQSPSSLSASVGDRVTITCRASQGISSWLAWYQQKPEKAPKSLIYAASSLQSGVPSRFSGSGSGTDFTLTISSLQPEDFATYYCQQYNSYPLTFGGGTKVEIK
B3: 29D8 antibody (antibody, IgG1, V domains shown)
VH: QVQLVQSGAEVKKPGASVKVSCKAFAYTFSTYGISWVRQAPGQGLEWMGWISAYNSNTNYAQKVQGRITMTTDTSTRTAYMELRGLRSDDTAVYFCATFFGGHSGYHYGLDVWGQGTTVTVSS
VL: EIVLTQSPATLSLSPGERATLSCRASQSVSSYLAWYQQKPGQAPRLLIYDASNRATGIPARFSGSGSGTDFTLTISSLEPEDFAVYYCQQRSNWPPYTFGQGTKLEIK
B4: 1E4 antibody (antibody, IgG4, V domains shown)
VH: QVQLVQSGAEVKKPGASVKVSCKASVYTFTTYGISWVRQAPGQGLEWMGWISVYNGNTNYGQNFQGRVSMTTDTSTSTAYMELRSLRSDDTAVYYCASFHGGHSGYHYGLDVWGQGTTVTVSS
VL: EIVLTQSPATLSLSPGERATLSCRASQSVSSYLAWYQQKPGQAPRLLIYDASNRATGIPARFSGSGSGTDFTLTISSLEPEDFAVYYCQQRSNWPPYTFGQGTKLEIK
B5: 31A3 antibody (antibody, IgG1, V domains shown)
VH: QVQLVQSGAEVKKPGASVKVSCKASVYTFTTYGISWVRQAPGQGLEWMGWITVYNGNTNYAQKFHGRVTMTTDTSTSTAYMELRSLRSDDTAVYYCASFHGGHSGYHYGLDVWGQGTTVTVSS
VL: EIVLTQSPATLSLSPGERATLSCRASQSVSSYLAWYQQKPGQAPRLLIYDASNRATGIPARFSGSGSGTDFTLTISSLEPEDFAVYYCQQRSNWPPYTFGQGTKLEIK
B6: 30D12 antibody (antibody, IgG1, V domains shown)
VH: QVQLVQSGAEVKKPGASVKVSCKASGYTFTSYDINWVRQATGQGLEWMGWMNPDSGVIRYAQKFQGRVTMTRNTSISTAYMELNSLRSEDTAVYYCAREWFGELPSYYFYSGMDVWGQGTTVTVSS
VL: EIVLTQSPATLSLSPGERATLSCRASQSVSSYLAWYQQKPGQAPRLLIYDASNRATGIPARFSGSGSGTDFTLTISSLEPEDFAVYYCQQRSNWPPTFGPGTKVDIK
notes: Fully human monoclonal antibody; also called 30D12 IgG1
B7: 12B12 antibody (antibody, IgG4, V domains shown)
VH: QVQLVQSGAEVKKPGSSVKVSCKASGGTLSSYAFSWVRQAPGQGLEWMGGIIPFFGTVNYAQKFQGRVTITADESTNTAYMELSSLRSEDTAVYYCARDRDYYGLGSPLHYYGLDVWGQGTTVTVSS
VL: EIVLTQSPDFQSVTPKEKVTITCRASQSIGSSLHWYQQKPDQSPKLLIKYASQSFSGVPSRFSGSGSGTDFTLTINSLEAEDAAAYYCHQSSSLPWTFGQGTKVEIK
B8: 39F12 antibody (antibody, IgG4, V domains shown)
VH: QVQLVQSGAEVKKPGSSVKVSCKASGGTLSSYAFSWVRQAPGQGLEWMGGIIPFFGTTNYAQKFQGRVIITADESTNTAYMELSGLRSEDTAVYYCARDRDYYGLGSPFYYYGMDVWGQGTTVTVSS
VL: EIVLTQSPDFQSVTPKEKVTITCRASQSIGSSLHWYQQKPDQSPKLLIKYASQSFSGVPSRFSGSGSGTDFTLTINSLEAEDAAAYYCHQSSSLPWTFGQGTKVEIK
notes: also called Mab06a; 39F12 IgG4
B9: 15B7 antibody (antibody, IgG4, V domains shown)
VH: QVQLVQSGAEVKKPGSSVKVSCKASGGTLSSYAFSWVRQAPGQGLEWMGGIIPFFGTAHYAQKFQGRVTITADESTNTAYMELSSLRSEDTAVYYCARDRDYYGSGSPFHFSGLDVWGQGTTVTVSS
VL: EIVLTQSPDFQSVTPKEKVTITCRASQSIGSSLHWYQQKPDQSPKLLIKYASQSFSGVPSRFSGSGSGTDFTLTINSLEAEDAAAYYCHQSSSLPWTFGQGTKVEIK

Legend:
human IL-17A homodimer [1] = target: T1, human IL-17A homodimer (human, UniProt Q16552 20-155, limits assumed); test: cell-based or functional assay
T1 sequence (looked up): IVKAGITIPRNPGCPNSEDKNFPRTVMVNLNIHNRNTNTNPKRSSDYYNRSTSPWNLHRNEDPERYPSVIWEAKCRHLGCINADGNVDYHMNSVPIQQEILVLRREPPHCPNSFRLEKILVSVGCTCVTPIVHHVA

[2] = target: T2, human IL-17A/IL-17F heterodimer (human, UniProt Q16552 24-155; Q96PD4 31-163, limits assumed); test: cell-based or functional assay
T2 sequence (looked up) 1: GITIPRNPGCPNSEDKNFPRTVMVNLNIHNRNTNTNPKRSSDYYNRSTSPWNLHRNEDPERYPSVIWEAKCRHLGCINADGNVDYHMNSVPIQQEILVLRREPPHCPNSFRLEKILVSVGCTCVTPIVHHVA
T2 sequence (looked up) 2: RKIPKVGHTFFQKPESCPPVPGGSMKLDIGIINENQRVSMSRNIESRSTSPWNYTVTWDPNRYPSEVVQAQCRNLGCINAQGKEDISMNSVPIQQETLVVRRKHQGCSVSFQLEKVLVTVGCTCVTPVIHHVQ

[3] = target: T3, cynomolgus IL-17F homodimer (cynomolgus, UniProt G7P4V0 31-163); test: cell-based or functional assay
T3 sequence: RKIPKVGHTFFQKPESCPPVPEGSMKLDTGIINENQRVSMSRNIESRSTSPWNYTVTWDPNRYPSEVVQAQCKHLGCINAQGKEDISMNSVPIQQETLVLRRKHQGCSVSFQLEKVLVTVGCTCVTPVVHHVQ

[4] = target: T4, cynomolgus IL-17A homodimer (cynomolgus, UniProt A0A2K5TTB0 20-155); test: cell-based or functional assay
T4 sequence: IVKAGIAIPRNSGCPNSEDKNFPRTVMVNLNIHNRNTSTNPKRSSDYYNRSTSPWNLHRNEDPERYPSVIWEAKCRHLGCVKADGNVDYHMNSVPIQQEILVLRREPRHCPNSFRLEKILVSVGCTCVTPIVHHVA

[5] = target: cynomolgus IL-17A/IL-17F heterodimer (cynomolgus); test: cell-based or functional assay
mouse IL-17F homodimer = target: T5, mouse IL-17F homodimer (mouse, UniProt Q7TNI7 29-161, limits assumed); test: cell-based or functional assay
T5 sequence (looked up): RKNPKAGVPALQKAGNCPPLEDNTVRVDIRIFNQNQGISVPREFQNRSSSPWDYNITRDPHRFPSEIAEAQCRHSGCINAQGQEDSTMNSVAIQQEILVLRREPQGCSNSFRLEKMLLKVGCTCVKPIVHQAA

human IL-17A homodimer [6] = target: T1, human IL-17A homodimer; test: cell-based or functional assay; remark: listed apart in the source
[7] = target: T4, cynomolgus IL-17A homodimer; test: cell-based or functional assay; remark: listed apart in the source
human IL-17A homodimer [8] = target: T1, human IL-17A homodimer; test: SPR Biacore, mAb captured, cytokine as analyte
Method: (§1) The affinity and binding kinetics of huIL-17F cross-reactive antibodies were characterized on a Biacore 2000 instrument (Biacore AB, Uppsala, Sweden). […] This surface was used to capture huIL-17A/F antibodies. The surface was regenerated after each cycle by injection of 10 mM glycine pH=1.5 at 20 μL/min, for 30 s followed by 1 min of stabilization time in HBS-EP buffer (Biacore AB, Uppsala, Sweden).
(§2) All solutions were diluted in HBS-EP buffer. Injection was performed at 75 μl/min for 3 min followed by 12 min of dissociation time and the temperature was set at 25° C.

[9] = target: T2, human IL-17A/IL-17F heterodimer; test: SPR Biacore, mAb captured, cytokine as analyte
Method: as §1, §2

rat IL-17A homodimer = target: T6, rat IL-17A homodimer (rat, UniProt Q61453 18-150, limits assumed); test: cell-based or functional assay
T6 sequence (looked up): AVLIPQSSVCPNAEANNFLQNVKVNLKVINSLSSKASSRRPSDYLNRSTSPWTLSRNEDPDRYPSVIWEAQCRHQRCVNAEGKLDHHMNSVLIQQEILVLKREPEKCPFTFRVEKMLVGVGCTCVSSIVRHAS

mouse IL-17A homodimer = target: T7, mouse IL-17A homodimer (mouse, UniProt Q62386 26-158, limits assumed); test: cell-based or functional assay
T7 sequence (looked up): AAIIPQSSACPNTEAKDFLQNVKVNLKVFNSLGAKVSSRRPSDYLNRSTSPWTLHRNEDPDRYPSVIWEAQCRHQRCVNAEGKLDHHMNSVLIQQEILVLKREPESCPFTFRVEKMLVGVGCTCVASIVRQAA

| Binder | IC50, IL-6 secretion by MEF cells, cytokine at 5 ng/ml (human IL-17A homodimer [1]) | IC50, IL-6 secretion by MEF cells, cytokine at 17.5 ng/ml [2] | IC50, IL-6 secretion by MEF cells, cytokine at 25 ng/ml [3] | IC50, IL-6 secretion by MEF cells, cytokine at 5 ng/ml [4] | IC50, IL-6 secretion by MEF cells, cytokine at 25 ng/ml [5] | IC50, IL-6 secretion by MEF cells, cytokine at 50 ng/ml (mouse IL-17F homodimer) | IC50, IL-6 secretion by HFFF2 human fibroblasts, cytokine at 25 ng/ml (human IL-17A homodimer [6]) | IC50, IL-6 secretion by HFFF2 human fibroblasts, cytokine at 25 ng/ml [7] | Kd (human IL-17A homodimer [8]) | Kd [9] | IC50, IL-6 secretion by MEF cells, cytokine at 5 ng/ml (rat IL-17A homodimer) | IC50, IL-6 secretion by MEF cells, cytokine at 5 ng/ml (mouse IL-17A homodimer) |
| --- | --- | --- | --- | --- | --- | --- | --- | --- | --- | --- | --- | --- |
| B1 | 1.6 nM | 1.1 nM | 1.4 nM | 2 nM | 0.18 nM | > 1000 nM | 3.9 nM | 4.5 nM | 0.0364 nM | 0.0447 nM | – | – |
| B2 | 100 nM | 240 nM | 50 nM | 230 nM | – | – | – | – | – | – | – | – |
| B3 | 40 nM | 1.1 nM | 3.6 nM | 8.4 nM | 0.56 nM | – | 36 nM | – | – | – | – | – |
| B4 | 480 nM | 16 nM | 3.4 nM | 330 nM | – | – | – | – | – | – | – | – |
| B5 | – | 9.2 nM | 4.2 nM | 290 nM | – | – | – | – | – | – | – | – |
| B6 | 1.1 nM | 31 nM | 130 nM | 3 nM | 15 nM | – | 4.2 nM | 6.6 nM | 0.0594 nM | 0.0981 nM | > 1000 nM | – |
| B7 | 33 nM | 13 nM | 3.2 nM | 13 nM | – | 4.2 nM | – | – | – | – | > 1000 nM | > 1000 nM |
| B8 | 9.8 nM | 11 nM | 5.2 nM | 4.7 nM | 16 nM | 4 nM | 14 nM | 15 nM | 0.0895 nM | 0.402 nM | > 1000 nM | > 1000 nM |
| B9 | 180 nM | 160 nM | 15 nM | 140 nM | – | 22 nM | – | – | – | – | > 1000 nM | > 1000 nM |
